Target: mouse Atg7 (mAtg7) (mouse) (UniProt Q9D906)
Sequence (Q9D906 whole entry): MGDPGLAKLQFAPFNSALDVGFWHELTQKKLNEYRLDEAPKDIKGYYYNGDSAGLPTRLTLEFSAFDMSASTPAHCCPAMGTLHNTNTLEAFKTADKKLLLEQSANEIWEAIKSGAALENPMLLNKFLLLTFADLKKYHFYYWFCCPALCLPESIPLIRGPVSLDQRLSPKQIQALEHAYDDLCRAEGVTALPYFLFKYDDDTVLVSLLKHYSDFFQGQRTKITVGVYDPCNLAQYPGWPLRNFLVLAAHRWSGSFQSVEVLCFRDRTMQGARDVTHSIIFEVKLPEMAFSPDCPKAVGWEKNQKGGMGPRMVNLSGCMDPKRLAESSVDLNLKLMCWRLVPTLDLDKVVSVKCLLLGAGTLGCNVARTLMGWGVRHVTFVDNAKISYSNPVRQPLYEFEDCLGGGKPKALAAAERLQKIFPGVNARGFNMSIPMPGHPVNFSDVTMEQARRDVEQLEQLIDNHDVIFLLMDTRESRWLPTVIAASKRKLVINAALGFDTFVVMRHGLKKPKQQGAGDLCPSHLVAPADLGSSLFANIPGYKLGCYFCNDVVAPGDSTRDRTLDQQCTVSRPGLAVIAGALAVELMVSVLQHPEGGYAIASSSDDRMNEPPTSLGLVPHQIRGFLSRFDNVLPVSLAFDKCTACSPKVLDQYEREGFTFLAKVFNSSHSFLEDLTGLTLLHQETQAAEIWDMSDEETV

Substance	LC3B-hAtg3^∆90-190 thioester intermediate formed, after 1 h [%]	LC3B–PE conjugase activity compared to the wild type (in vitro conjugation assay) [%]	LC3B-hAtg3 thioester intermediate formed, within 30 min [%]
hAtg3^∆90-190 (from UniProt Q9NT62 1-314) (enzyme)	25	50	
human Atg3 (hAtg3), wild type (from UniProt Q9NT62 1-314) (enzyme)			70
